Drawing on patent US20170292963A1, this text covers BACE1 internalized within 12 min and hAβ40 in media of hAPP/NPTX1-/- neurons compared to hAPP neurons (ELISA) for one substance.

This assay addresses Mouse BACE1 (beta amyloid precursor protein cleavage enzyme 1), native protein in mouse brain lysate or neurons (mouse) (UniProt P56818). Briefly: cell-based or functional assay.

Mouse BACE1 (beta amyloid precursor protein cleavage enzyme 1), native protein in mouse brain lysate or neurons (mouse), sequence (P56818 46-501 limits assumed): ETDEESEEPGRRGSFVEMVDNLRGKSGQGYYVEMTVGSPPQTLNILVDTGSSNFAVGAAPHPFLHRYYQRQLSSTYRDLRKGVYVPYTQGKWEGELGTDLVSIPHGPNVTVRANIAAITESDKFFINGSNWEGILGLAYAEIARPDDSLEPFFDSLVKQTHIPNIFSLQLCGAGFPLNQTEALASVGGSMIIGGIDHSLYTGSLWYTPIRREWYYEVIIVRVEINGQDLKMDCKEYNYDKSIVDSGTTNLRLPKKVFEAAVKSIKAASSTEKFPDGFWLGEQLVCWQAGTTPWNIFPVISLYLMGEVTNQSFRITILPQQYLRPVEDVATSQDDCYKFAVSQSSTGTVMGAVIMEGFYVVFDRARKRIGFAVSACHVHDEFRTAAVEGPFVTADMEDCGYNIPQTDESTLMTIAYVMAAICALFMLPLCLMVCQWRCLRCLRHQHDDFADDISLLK

In turn, “Mouse NPTX1 (Neuronal Pentraxin 1), native protein in mouse brain lysate or neurons (from UniProt Q62443 23-432)” gave a BACE1 internalized within 12 min at 37 C as percent of surface expression, NPTX1-/- neurons (surface biotinylation assay) of 95%; a BACE1 internalized within 12 min at 37 C as percent of surface expression, WT neurons (surface biotinylation assay) of 37.5%; a hAβ40 in media of hAPP/NPTX1-/- neurons compared to hAPP neurons (ELISA) of 2 fold.
